This test deals with SARS-CoV-2 Spike protein S1 (SARS-CoV-2) (UniProt P0DTC2). Nature of the test: BLI.

The substance “peptide … (sequence 24-42 of the ACE2 α1 domain)” yielded a half-maximal inhibitory concentration (IC50) of 700 nM and a peptide concentration of half effect on koff of the S1-ACE2 complex of 0.6 µM.

These data come from paper doi:10.1101/2020.12.29.424682.
